Biological target: C-terminally FLAG-tagged HPIV3 P protein (P-FLAG) (human parainfluenza virus type 3 (HPIV3)) (UniProt P06162)
Assay: co-IP

Sequence of UniProt P06162 (P06162 whole entry): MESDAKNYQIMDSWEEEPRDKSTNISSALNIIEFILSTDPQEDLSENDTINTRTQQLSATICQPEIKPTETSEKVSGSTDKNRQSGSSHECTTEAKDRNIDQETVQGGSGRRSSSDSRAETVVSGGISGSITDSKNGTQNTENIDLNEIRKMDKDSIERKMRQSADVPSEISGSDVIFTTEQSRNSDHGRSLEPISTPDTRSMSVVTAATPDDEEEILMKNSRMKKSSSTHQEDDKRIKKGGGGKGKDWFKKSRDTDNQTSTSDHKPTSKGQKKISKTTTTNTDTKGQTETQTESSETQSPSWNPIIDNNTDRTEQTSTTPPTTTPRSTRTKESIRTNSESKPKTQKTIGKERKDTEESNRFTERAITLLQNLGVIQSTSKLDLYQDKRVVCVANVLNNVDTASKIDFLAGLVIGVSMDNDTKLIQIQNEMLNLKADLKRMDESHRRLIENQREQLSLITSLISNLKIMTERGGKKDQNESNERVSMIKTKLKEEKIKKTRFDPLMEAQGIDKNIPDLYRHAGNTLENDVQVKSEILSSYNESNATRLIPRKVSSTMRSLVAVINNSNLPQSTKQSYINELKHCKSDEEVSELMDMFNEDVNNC

L N960, non-tagged (from UniProt P12577 1-960) (domain or fragment)
binding as percent of Lwt (phosphoimager): 26.8 % of Lwt

— paper PMC2658021
